This is an account of results in US20180105835, “TARGETED RNA KNOCKDOWN AND KNOCKOUT BY TYPE III-A Csm COMPLEXES” (VILNIUS UNIVERSITY, published 2018).

The target in this series is StCsm effector complex (Cas10-Csm2-Csm3-Csm4-Csm5, StCsm-40), wild type (Streptococcus thermophilus DGCC8004, UniProt A0A0A7HFE1;A0ABF7SXA0;A0A0A7HIF0;A0ABF7SXA2;A0ABF7SXA3 …). The series can be described thus: EMSA; gel shift, StCsm-40; value only in figure. Conditions: tags: N-terminal StrepII on Csm2; chain copies: Cas10:1 Csm2:3 Csm3:5 Csm4:1 Csm5:1 (stated); label: 5'-33P. Here is the method: FIGS. 16A-B show in vitro cleavage activity of the StCsm targeted to the GFP transcript. Schematic representation of StCsm bound to the target RNA used for in vitro binding and cleavage assays is presented above the gels. RNA was 5′-end labeled with ³³P as indicated with asterisk. (FIG. 16A) Gel shift assay of RNA binding by StCsm-40. The binding reactions contained the ³³P-labeled GFP RNA (0.5 nM) and StCsm-40 at concentrations indicated by each lane. Samples were analyzed by PAGE under non-denaturating conditions. (FIG. 16B) StCsm-40 cleavage assay. Cleavage reactions were performed at 25° C. for indicated time intervals in the Reaction buffer supplemented with 10 mM Mg-acetate, 8 nM GFP RNA substrate and 160 nM StCsm-40. Samples were analyzed by denaturing PAGE, followed by phosphorimaging. […]
Binding assays were performed by incubating different amounts of Csm complexes with 0.5 nM of ³²P-5′-labeled NA in the Binding buffer (40 mM Tris, 20 mM acetic acid (pH 8.4 at 25° C.), 1 mM EDTA, 0.1 mg/ml BSA, 10% (v/v) glycerol). […] The Kd for NA binding by Csm-72 and Csm-40 was evaluated assuming the complex concentration at which half of the substrate is bound as a rough estimate of Kd value. For binding competition assay 0.5 nM ³²P-labelled S3/1 RNA was mixed with 0.5-5000 nM of unlabelled competitor NA and 0.3 nM StCsm-40, and analyzed by EMSA.

B1: jGFP crRNA 40 nt ; jGFP target RNA (coding-strand DNA sequence printed) (ssRNA ; ssRNA)
RNA 1: ACGGAAACAUAACCUUCGGGCAUGGCACUCUUGAAAAAGU
RNA 2: CAUGACUUUUUCAAGAGUGCCAUGCCCGAAGGUUAU
On to B1, for which the binding result is on record as “binds”.
